# Publication PMC11992676
# Biological target: T1, TRF1 (recombinant, in-house purified) (UniProt P54274)
# T1 sequence: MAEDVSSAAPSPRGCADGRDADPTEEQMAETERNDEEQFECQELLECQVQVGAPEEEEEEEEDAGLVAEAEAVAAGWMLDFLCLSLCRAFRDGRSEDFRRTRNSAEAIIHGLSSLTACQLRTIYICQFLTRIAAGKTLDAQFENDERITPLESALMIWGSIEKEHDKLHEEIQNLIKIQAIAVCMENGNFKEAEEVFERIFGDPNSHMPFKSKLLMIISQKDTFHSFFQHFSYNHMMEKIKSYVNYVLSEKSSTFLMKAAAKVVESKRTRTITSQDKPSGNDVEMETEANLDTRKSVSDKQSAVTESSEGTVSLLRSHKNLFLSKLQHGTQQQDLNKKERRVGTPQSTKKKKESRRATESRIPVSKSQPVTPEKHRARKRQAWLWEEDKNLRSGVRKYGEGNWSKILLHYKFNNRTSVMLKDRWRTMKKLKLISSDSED
# Test: EMSA
# Conditions: 2 mM Mg2+, 50 mM Tris-Cl pH 8.0, 2 mM MgCl2, 150 mM KCl, 0.5 mM DTT, 10% glycerol, 5 nM oligonucleotide, 30 min room temperature, 1% agarose gel in 1x TBE at 4 C
sequence,measurement,setting,value
GACCATGCTTAGGGTTAGGGTTAGGGTTAGGGTTATCATACAA (double strand) [TelDNA],binding signal,scale: fold,1
GACCATGCTTATCCCCATTTGTATTATCCCCATTTCATACAAA (double strand) [Non-TelDNA],binding signal (fold lower binding than TelDNA),,5
GACCAUGCUUAGGGUUAGGGUUAGGGUUAGGGUUAUCAUACAA / TTGTATGATAACCCTAACCCTAACCCTAACCCTAAGCATGGTC [Telomeric DNA:RNA hybrid],binding signal (fold lower affinity than TelDNA),"strand 1 is RNA, strand 2 is DNA",7
